# Measurements reported in US20220153853A1 (JIANGSU HENGRUI MEDICINE, published 2022).
# Target: human GCGR (full-length glucagon receptor of 477 amino acids) (human, UniProt P47871 26-477)
# Test: cell-based or functional assay
# Sequence of human GCGR (full-length glucagon receptor of 477 amino acids) (P47871 26-477 limits assumed): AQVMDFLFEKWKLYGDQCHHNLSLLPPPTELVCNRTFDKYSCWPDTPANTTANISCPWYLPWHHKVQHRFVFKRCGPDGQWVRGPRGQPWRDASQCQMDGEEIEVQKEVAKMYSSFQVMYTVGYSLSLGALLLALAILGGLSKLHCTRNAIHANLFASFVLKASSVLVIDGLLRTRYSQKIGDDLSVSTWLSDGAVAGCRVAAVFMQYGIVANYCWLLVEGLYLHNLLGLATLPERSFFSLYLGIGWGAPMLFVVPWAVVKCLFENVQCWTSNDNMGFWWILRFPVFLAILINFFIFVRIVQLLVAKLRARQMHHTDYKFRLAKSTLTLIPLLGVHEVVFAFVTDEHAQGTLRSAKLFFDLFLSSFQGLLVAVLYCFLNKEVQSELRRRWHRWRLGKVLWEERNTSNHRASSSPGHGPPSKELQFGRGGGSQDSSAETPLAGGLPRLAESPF
Binder,IC50,Imax
"hu1803-1 (antibody, human IgG4 S228P, kappa, F234A L235A, V domains shown) VH: EVQLVQSGAEVKKPGASVKVSCKASGYTFTDYWIEWVRQAPGQGLEWMGEILPGSTYTNYNEKFKGRVTMTRDTSTSTVYMELSSLRSEDTAVYYCARGLSTLMAVDYFDYWGQGTTVTVSS VL: DIQMTQSPSSLSASVGDRVTITCRASQDISNYLNWYQQKPGKAPKLLIYYSSTLHSGVPSRFSGSGSGTDFTLTISSLQPEDFATYYCQQTNIFPWTFGGGTKVEIKR",191 nM,91.8%
"hu1803-3 (antibody, human IgG4 S228P, kappa, F234A L235A, V domains shown) VH: EVQLVQSGAEVKKPGASVKVSCKASGYTFTDYWIEWVRQAPGQGLEWIGEILPGSTYTNYNEKFKGRATFTADTSTSTAYMELSSLRSEDTAVYYCSRGLSTLMAVDYFDYWGQGTTVTVSS VL: DIQMTQSPSSLSASVGDRVTITCRASQDISNYLNWYQQKPGKAPKLLIYYSSTLHSGVPSRFSGSGSGTDFTLTISSLQPEDFATYYCQQTNIFPWTFGGGTKVEIKR",110 nM,96.7%
"hu1803-10 (antibody, human IgG4 S228P, kappa, F234A L235A, V domains shown) VH: EVQLVQSGAEVKKPGASVKVSCKASGYTFTDYWIEWVRQAPGQGLEWMGEILPGSTYTNYNEKFKGRVTFTADTSTSTAYMELSSLRSEDTAVYYCARGLSTLMAVDYFDYWGQGTTVTVSS VL: DIQMTQSPSSLSASVGDRVTITCRASQDISNYLNWYQQKPGKAVKLLIYYSSTLHSGVPSRFSGSGSGTDYTLTISSLQPEDFATYYCQQTNIFPWTFGGGTKVEIKR",76.7 nM,100%
"hu1803-7 (antibody, human IgG4 S228P, kappa, F234A L235A, V domains shown) VH: EVQLVQSGAEVKKPGASVKVSCKASGYTFTDYWIEWVRQAPGQGLEWIGEILPGSTYTNYNEKFKGRATFTADTSTSTAYMELSSLRSEDTAVYYCSRGLSTLMAVDYFDYWGQGTTVTVSS VL: DIQMTQSPSSLSASVGDRVTITCRASQDISNYLNWYQQKPGGAVKLLIYYSSTLHSGVPSRFSGSGSGTDYTLTISSLQPEDFATYFCQQTNIFPWTFGGGTKVEIKR",73 nM,100%
"hu1803-5 (antibody, human IgG4 S228P, kappa, F234A L235A, V domains shown) VH: EVQLVQSGAEVKKPGASVKVSCKASGYTFTDYWIEWVRQAPGQGLEWMGEILPGSTYTNYNEKFKGRVTMTRDTSTSTVYMELSSLRSEDTAVYYCARGLSTLMAVDYFDYWGQGTTVTVSS VL: DIQMTQSPSSLSASVGDRVTITCRASQDISNYLNWYQQKPGGAVKLLIYYSSTLHSGVPSRFSGSGSGTDYTLTISSLQPEDFATYFCQQTNIFPWTFGGGTKVEIKR",79 nM,100%
"hu1803-11 (antibody, human IgG4 S228P, kappa, F234A L235A, V domains shown) VH: EVQLVQSGAEVKKPGASVKVSCKASGYTFTDYWIEWVRQAPGQGLEWIGEILPGSTYTNYNEKFKGRATFTADTSTSTAYMELSSLRSEDTAVYYCSRGLSTLMAVDYFDYWGQGTTVTVSS VL: DIQMTQSPSSLSASVGDRVTITCRASQDISNYLNWYQQKPGKAVKLLIYYSSTLHSGVPSRFSGSGSGTDYTLTISSLQPEDFATYYCQQTNIFPWTFGGGTKVEIKR",88.7 nM,100%
"hu1803-4 (antibody, human IgG4 S228P, kappa, F234A L235A, V domains shown) VH: EVQLVQSGAEVKKPGASVKVSCKASGYTFTDYWIEWVKQAPGQGLEWIGEILPGSTYTNYNEKFKGRATFTADPSTSTAYMELSSLRSEDTAVYYCSRGLSTLMAVDYFDYWGQGTTVTVSS VL: DIQMTQSPSSLSASVGDRVTITCRASQDISNYLNWYQQKPGKAPKLLIYYSSTLHSGVPSRFSGSGSGTDFTLTISSLQPEDFATYYCQQTNIFPWTFGGGTKVEIKR",140 nM,100%
"hu1803-6 (antibody, human IgG4 S228P, kappa, F234A L235A, V domains shown) VH: EVQLVQSGAEVKKPGASVKVSCKASGYTFTDYWIEWVRQAPGQGLEWMGEILPGSTYTNYNEKFKGRVTFTADTSTSTAYMELSSLRSEDTAVYYCARGLSTLMAVDYFDYWGQGTTVTVSS VL: DIQMTQSPSSLSASVGDRVTITCRASQDISNYLNWYQQKPGGAVKLLIYYSSTLHSGVPSRFSGSGSGTDYTLTISSLQPEDFATYFCQQTNIFPWTFGGGTKVEIKR",77.5 nM,100%
"hu1803-8 (antibody, human IgG4 S228P, kappa, F234A L235A, V domains shown) VH: EVQLVQSGAEVKKPGASVKVSCKASGYTFTDYWIEWVKQAPGQGLEWIGEILPGSTYTNYNEKFKGRATFTADPSTSTAYMELSSLRSEDTAVYYCSRGLSTLMAVDYFDYWGQGTTVTVSS VL: DIQMTQSPSSLSASVGDRVTITCRASQDISNYLNWYQQKPGGAVKLLIYYSSTLHSGVPSRFSGSGSGTDYTLTISSLQPEDFATYFCQQTNIFPWTFGGGTKVEIKR",85.9 nM,100%
"hu1803-2 (antibody, human IgG4 S228P, kappa, F234A L235A, V domains shown) VH: EVQLVQSGAEVKKPGASVKVSCKASGYTFTDYWIEWVRQAPGQGLEWMGEILPGSTYTNYNEKFKGRVTFTADTSTSTAYMELSSLRSEDTAVYYCARGLSTLMAVDYFDYWGQGTTVTVSS VL: DIQMTQSPSSLSASVGDRVTITCRASQDISNYLNWYQQKPGKAPKLLIYYSSTLHSGVPSRFSGSGSGTDFTLTISSLQPEDFATYYCQQTNIFPWTFGGGTKVEIKR",137 nM,98.5%
"hu1803-12 (antibody, human IgG4 S228P, kappa, F234A L235A, V domains shown) VH: EVQLVQSGAEVKKPGASVKVSCKASGYTFTDYWIEWVKQAPGQGLEWIGEILPGSTYTNYNEKFKGRATFTADPSTSTAYMELSSLRSEDTAVYYCSRGLSTLMAVDYFDYWGQGTTVTVSS VL: DIQMTQSPSSLSASVGDRVTITCRASQDISNYLNWYQQKPGKAVKLLIYYSSTLHSGVPSRFSGSGSGTDYTLTISSLQPEDFATYYCQQTNIFPWTFGGGTKVEIKR",86.9 nM,100%

# The remaining lines, values ahead:
IC50,Imax,Binder
125 nM,90.4%,"hu1810-9 (antibody, human IgG4 S228P, kappa, F234A L235A, V domains shown) VH: QVQLVQSGAEVKKPGSSVKVSCKASGGTFSNYAISWVRQAPGQGLEWMGEIYPTSGNTYYNEKFKGRVTITADKSTSTAYMELSSLRSEDTAVYYCARGVITTVVSTDYFDYWGQGTLVTVSS VL: DIQMTQSPSSLSASVGDRVTITCRASLDISNYLNWYQLKPGKAVKLLIYYTSTLHSGVSSRFSGSGSGTEYTLTISSLQPEDFATYYCQQGNMVPYTFGGGTKVEIKR"
95.6 nM,97.4%,"hu1810-10 (antibody, human IgG4 S228P, kappa, F234A L235A, V domains shown) VH: QVQLVQSGAEVKKPGSSVKVSCKASGGTFSNYAISWVRQAPGQGLEWMGEIYPTSGNTYYNEKFKGRVTITADRSTSTMYMELSSLRSEDTAVYYCASGVITTVVSTDYFDYWGQGTLVTVSS VL: DIQMTQSPSSLSASVGDRVTITCRASLDISNYLNWYQLKPGKAVKLLIYYTSTLHSGVSSRFSGSGSGTEYTLTISSLQPEDFATYYCQQGNMVPYTFGGGTKVEIKR"
189 nM,83.2%,"hu1810-1 (antibody, human IgG4 S228P, kappa, F234A L235A, V domains shown) VH: QVQLVQSGAEVKKPGSSVKVSCKASGGTFSNYAISWVRQAPGQGLEWMGEIYPTSGNTYYNEKFKGRVTITADKSTSTAYMELSSLRSEDTAVYYCARGVITTVVSTDYFDYWGQGTLVTVSS VL: DIQMTQSPSSLSASVGDRVTITCRASLDISNYLNWYQQKPGKAPKLLIYYTSTLHSGVPSRFSGSGSGTDFTLTISSLQPEDFATYYCQQGNMVPYTFGGGTKVEIKR"
133 nM,100%,"hu1810-8 (antibody, human IgG4 S228P, kappa, F234A L235A, V domains shown) VH: QVQLVQSGAEVKKPGSSVKVSCKASGGTFSNYAISWVKQAPGQGLEWIGEIYPTSGNTYYNEKFKGKATLTADRSTSTMYMELSSLRSEDTAVYYCASGVITTVVSTDYFDYWGQGTLVTVSS VL: DIQMTQSPSSLSASVGDRVTITCRASLDISNYLNWYQQKPGKAVKLLIYYTSTLHSGVSSRFSGSGSGTDYTLTISSLQPEDFATYYCQQGNMVPYTFGGGTKVEIKR"
216 nM,86.4%,"hu1810-5 (antibody, human IgG4 S228P, kappa, F234A L235A, V domains shown) VH: QVQLVQSGAEVKKPGSSVKVSCKASGGTFSNYAISWVRQAPGQGLEWMGEIYPTSGNTYYNEKFKGRVTITADKSTSTAYMELSSLRSEDTAVYYCARGVITTVVSTDYFDYWGQGTLVTVSS VL: DIQMTQSPSSLSASVGDRVTITCRASLDISNYLNWYQQKPGKAVKLLIYYTSTLHSGVSSRFSGSGSGTDYTLTISSLQPEDFATYYCQQGNMVPYTFGGGTKVEIKR"
106 nM,100%,"hu1810-2 (antibody, human IgG4 S228P, kappa, F234A L235A, V domains shown) VH: QVQLVQSGAEVKKPGSSVKVSCKASGGTFSNYAISWVRQAPGQGLEWMGEIYPTSGNTYYNEKFKGRVTITADRSTSTMYMELSSLRSEDTAVYYCASGVITTVVSTDYFDYWGQGTLVTVSS VL: DIQMTQSPSSLSASVGDRVTITCRASLDISNYLNWYQQKPGKAPKLLIYYTSTLHSGVPSRFSGSGSGTDFTLTISSLQPEDFATYYCQQGNMVPYTFGGGTKVEIKR"
157 nM,100%,"hu1810-6 (antibody, human IgG4 S228P, kappa, F234A L235A, V domains shown) VH: QVQLVQSGAEVKKPGSSVKVSCKASGGTFSNYAISWVRQAPGQGLEWMGEIYPTSGNTYYNEKFKGRVTITADRSTSTMYMELSSLRSEDTAVYYCASGVITTVVSTDYFDYWGQGTLVTVSS VL: DIQMTQSPSSLSASVGDRVTITCRASLDISNYLNWYQQKPGKAVKLLIYYTSTLHSGVSSRFSGSGSGTDYTLTISSLQPEDFATYYCQQGNMVPYTFGGGTKVEIKR"
138 nM,99.1%,"hu1810-4 (antibody, human IgG4 S228P, kappa, F234A L235A, V domains shown) VH: QVQLVQSGAEVKKPGSSVKVSCKASGGTFSNYAISWVKQAPGQGLEWIGEIYPTSGNTYYNEKFKGKATLTADRSTSTMYMELSSLRSEDTAVYYCASGVITTVVSTDYFDYWGQGTLVTVSS VL: DIQMTQSPSSLSASVGDRVTITCRASLDISNYLNWYQQKPGKAPKLLIYYTSTLHSGVPSRFSGSGSGTDFTLTISSLQPEDFATYYCQQGNMVPYTFGGGTKVEIKR"
192 nM,95.4%,"hu1810-3 (antibody, human IgG4 S228P, kappa, F234A L235A, V domains shown) VH: QVQLVQSGAEVKKPGSSVKVSCKASGGTFSNYAISWVRQAPGQGLEWIGEIYPTSGNTYYNEKFKGRATLTADRSTSTMYMELSSLRSEDTAVYYCASGVITTVVSTDYFDYWGQGTLVTVSS VL: DIQMTQSPSSLSASVGDRVTITCRASLDISNYLNWYQQKPGKAPKLLIYYTSTLHSGVPSRFSGSGSGTDFTLTISSLQPEDFATYYCQQGNMVPYTFGGGTKVEIKR"
119 nM,100%,"hu1810-7 (antibody, human IgG4 S228P, kappa, F234A L235A, V domains shown) VH: QVQLVQSGAEVKKPGSSVKVSCKASGGTFSNYAISWVRQAPGQGLEWIGEIYPTSGNTYYNEKFKGRATLTADRSTSTMYMELSSLRSEDTAVYYCASGVITTVVSTDYFDYWGQGTLVTVSS VL: DIQMTQSPSSLSASVGDRVTITCRASLDISNYLNWYQQKPGKAVKLLIYYTSTLHSGVSSRFSGSGSGTDYTLTISSLQPEDFATYYCQQGNMVPYTFGGGTKVEIKR"
